Earlier results, collected in article PMC12224906.

Molecular target: eIF5B CTD (Homo sapiens) (UniProt O60841)
Sequence of UniProt O60841 (O60841 1076-1220): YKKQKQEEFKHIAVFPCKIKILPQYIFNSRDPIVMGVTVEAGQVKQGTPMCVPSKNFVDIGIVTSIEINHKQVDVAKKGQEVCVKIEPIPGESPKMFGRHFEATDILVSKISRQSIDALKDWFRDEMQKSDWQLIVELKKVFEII

Q: For eIF5 CTT (from UniProt P55010), which Kd is on record?
A: The Kd was 500 nM.
